Data: PMC8446450, “Autosomal Recessive Cutis Laxa 1C Mutations Disrupt the Structure and Interactions of Latent TGFβ Binding Protein-4” (Frontiers in Genetics, 2021)

T1: Tropoelastin (SHELdelta26A) (biotin where immobilised on streptavidin biosensors (position not given))
T1 chain: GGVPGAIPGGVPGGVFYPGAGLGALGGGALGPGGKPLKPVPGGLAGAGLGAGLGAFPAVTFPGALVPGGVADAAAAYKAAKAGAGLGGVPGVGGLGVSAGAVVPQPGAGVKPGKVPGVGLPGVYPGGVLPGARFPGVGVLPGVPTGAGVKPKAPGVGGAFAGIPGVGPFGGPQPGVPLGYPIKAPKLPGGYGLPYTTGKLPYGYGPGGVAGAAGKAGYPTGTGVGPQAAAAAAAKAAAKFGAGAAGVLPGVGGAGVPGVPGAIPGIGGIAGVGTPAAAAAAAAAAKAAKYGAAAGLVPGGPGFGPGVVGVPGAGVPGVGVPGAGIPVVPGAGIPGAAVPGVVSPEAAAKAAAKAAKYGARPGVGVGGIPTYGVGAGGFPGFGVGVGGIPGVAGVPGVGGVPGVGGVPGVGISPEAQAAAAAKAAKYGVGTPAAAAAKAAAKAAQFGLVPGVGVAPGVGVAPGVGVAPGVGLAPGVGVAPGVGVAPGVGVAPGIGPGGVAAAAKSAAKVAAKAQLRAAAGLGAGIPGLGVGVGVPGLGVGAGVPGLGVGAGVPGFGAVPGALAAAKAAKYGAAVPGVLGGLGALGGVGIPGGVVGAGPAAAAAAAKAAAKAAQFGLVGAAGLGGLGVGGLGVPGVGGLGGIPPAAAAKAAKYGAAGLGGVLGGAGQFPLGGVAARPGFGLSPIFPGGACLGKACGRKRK

B1: Latent TGFβ binding protein-4 (LTBP4S) C-terminal region, ARCL1C mutant C1186R (domain or fragment)
chain: RECYFDTAAPDACDNILARNVTWQECCCTVGEGWGSGCRIQQRPGTETAEYQSLCPHGRGYLAPSGDLSLRRDVDECQLFRDQVCKSGVCVNTAPGYSCYCSNGYYYHTQRLECIDNDECADEEPACEGGRCVNTVGSYHCTCEPPLVLDGSQRRCVSNESQSLDDNLGVCWQEVGADLVCSHPRLDRQATYTECCCLYGEAWGMDCALCPAQDSDDFEALCNVLRPPAYSPPRPGGFGLPYEYGPDLGPPYQGLPYGPELYPPPALPYDPYPPPPGPFARREAPYGAPRFDMPDFEDDGGPYGESEAPAPPGPGTRWPYRSRDTRRSFPEPEEPPEGGSYAGSLAEPYEELEAEECGILDGCTNGRCVRVPEGFTCRCFDGYRLDMTRMACVDINECDEAEAASPLCVNARCLNTDGSFRCICRPGFAPTHQPHHCAPARPRA

Assays:
[1] = target: Latent TGFβ binding protein-4 (LTBP4S) C-terminal region, ARCL1C mutant C1186R (human); test: SPR; ProteOn, LTBP4 C-terminal constructs amine-coupled on GLC chip, fibrillin-1 PF3 injected 100-3.1 nM, 10 mM HEPES, 150 mM NaCl, pH 7.4, 0.005% Tween-20, 25°C; steady state (equilibrium) analysis
[2] = target: T1, Tropoelastin (SHELdelta26A); test: BLI
[3] = target: Tropoelastin (SHELdelta26A); test: BLI; OctetRED96, biotinylated tropoelastin on streptavidin biosensors, LTBP4 C-terminal constructs 375-23.4 nM, 10 mM HEPES, 150 mM NaCl, pH 7.4, 0.005% Tween-20, 25°C; steady state analysis

Molecule | Kd [1] | Kd [2] | Kd [3]
Fibrillin-1 PF3 fragment (from UniProt P35555 45-722) (domain or fragment) | 40.2 nM | – | –
B1 | – | 55.9 nM | 154 nM
